The results in this text go back to publication PMC8981990.

The target in this assay is PKM2 (pyruvate kinase M2 isoform) (human (endogenous in U87)) (UniProt P14618). As to the kind of experiment: cross-linking; cell lysates (100 ug) of U87, T98G or LN319 cells 10 h after release, glutaraldehyde 0.125%, 5 min, 37 C, Western blot for PKM2; vehicle or DASA-58 (40 uM, 3 h).

Chain of PKM2 (pyruvate kinase M2 isoform), P14618 1-531 (natural protein; other documents disagree on this pair) (P14618 whole entry, canonical isoform): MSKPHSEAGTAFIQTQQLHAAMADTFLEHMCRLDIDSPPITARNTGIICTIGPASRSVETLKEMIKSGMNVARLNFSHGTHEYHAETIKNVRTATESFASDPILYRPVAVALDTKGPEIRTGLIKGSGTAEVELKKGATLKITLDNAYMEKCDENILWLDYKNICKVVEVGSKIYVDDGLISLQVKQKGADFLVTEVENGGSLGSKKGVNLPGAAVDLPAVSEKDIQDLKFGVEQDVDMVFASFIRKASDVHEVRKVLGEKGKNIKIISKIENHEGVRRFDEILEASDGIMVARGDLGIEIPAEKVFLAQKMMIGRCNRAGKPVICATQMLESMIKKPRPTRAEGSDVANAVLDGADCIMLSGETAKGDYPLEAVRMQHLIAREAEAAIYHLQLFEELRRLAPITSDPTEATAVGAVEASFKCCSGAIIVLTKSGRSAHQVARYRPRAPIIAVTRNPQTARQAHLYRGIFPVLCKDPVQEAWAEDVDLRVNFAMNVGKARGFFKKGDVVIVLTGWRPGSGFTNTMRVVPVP

Turning to “PKM2 (pyruvate kinase M2 isoform), P14618 1-531 (natural protein; other documents disagree on this pair)”, the stoichiometry N (usually the number of molecules, sites or subunits per partner or assembly) was found to be 2.
